Values belong to the binder of their own block, whether it stands above or below them.
Columns and labels:
[1] = biological target: T1, human CD137 on cells (human, UniProt Q07011 24-255); test: cell-based or functional assay
[2] = biological target: T1, human CD137 on cells; test: flow cytometry, CHO-K1/human CD137 cells, PE anti-human IgG Fc secondary, MFI (mean)
Protocol: Binding studies on CHO-K1 cells lines expressing CD137 were performed by standard flow cytometry-based staining procedures. CHO-K1 cells (generated by Alligator) were transfected with human or cynomolgus macaque CD137. A typical experiment would label approximately 100,000 cells per well, in 96-well plates, with a range of 100 nM to 0.05 nM binding molecule in 50 μL of saline buffer with 2% BSA and 2 mM EDTA, for 30 min on ice, followed by washes and incubation with PE-labeled secondary antibody, goat anti-human IgG Fcγ ([…]), for 20 minutes on ice. Signal from bound molecules was detected using a LSR-II™ or a Symphony A3 flow cytometer (BD Biosciences) and analyzed by FlowJo flow cytometry analysis software. […] Nonlinear regression analysis to determine EC₅₀ values was performed in GraphPad Prism 6® graphing and statistics software.

[3] = biological target: T2, recombinant human CD137 extracellular domain (ECD) (human); test: SPR (Biacore T200, 25 C), bispecific captured on anti-human IgG, monomeric ECD injected, 1:1 fit
T2 construct: Monomeric, made in HEK-293; also called Hu CD137; human 4-1BB ECD
Protocol: Goat anti-human IgG F(ab′)2 fragment (Jackson ImmunoResearch) at 20 μg/mL in 10 mM sodium acetate (pH 4.5) was immobilized at a density of 2000 response units (RU) onto the flow cell of a CM5 research-grade sensor chip (GE) by standard amine coupling chemistry. Each bispecific variant at 200 nM in HBS-EP+ buffer was captured in the flow cell with the immobilized anti-human IgG at a flow rate of 50 μL/min for 60 sec to reach ˜500 RU response, leaving one flow cell surface unmodified as the reference. Following a 30 sec stabilization period, four different concentrations of each ECD (0, 20, 60, and 180 nM) were injected at 50 μL/min for either 120 sec followed by a 240 sec dissociation period (for 5T4) or 90 sec followed by a 180 sec dissociation period (for 4-1BB). Regeneration was achieved by duplicate injections of 10 mM glycine (pH 1.5) at a flow rate of 50 μL/min for 30 sec followed by HBS-EP+ buffer stabilization for 1 min.
Sensorgrams obtained from kinetic SPR measurements were analyzed by the double subtraction method. The signal from the reference flow cell was subtracted from the analyte binding response obtained from flow cells with immobilized or captured ligands. Buffer reference responses were then averaged from multiple injections. The averaged buffer reference responses were then subtracted from analyte binding responses, and the final double-referenced data were analyzed with Biacore T200 Evaluation software (2.0, GE), globally fitting data to derive kinetic parameters. All sensorgrams were fitted using a simple one-to-one binding model.

[4] = biological target: T3, cynomolgus 5T4 on cells (cynomolgus macaque, UniProt Q4R8Y9 35-420); test: flow cytometry, CHO-K1/cynomolgus 5T4 transfectants, labelled anti-human IgG secondary, MFI (mean)
T3 construct: whole, on cells; also called CHO-K1/cynomolgus 5T4 transfectants
T3 sequence (looked up): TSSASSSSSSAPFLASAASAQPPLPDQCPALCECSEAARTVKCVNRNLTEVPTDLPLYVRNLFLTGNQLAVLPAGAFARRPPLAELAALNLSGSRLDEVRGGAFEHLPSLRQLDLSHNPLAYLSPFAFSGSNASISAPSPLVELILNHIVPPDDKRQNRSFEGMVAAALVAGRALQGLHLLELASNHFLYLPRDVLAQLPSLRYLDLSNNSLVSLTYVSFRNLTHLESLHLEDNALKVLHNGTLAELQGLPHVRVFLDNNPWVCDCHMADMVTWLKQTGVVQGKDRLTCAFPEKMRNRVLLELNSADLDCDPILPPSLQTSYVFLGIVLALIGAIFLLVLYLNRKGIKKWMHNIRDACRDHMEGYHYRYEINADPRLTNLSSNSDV
Protocol: Binding studies were performed by standard flow cytometry-based staining procedures two cell lines expressing 5T4:CHO-K1 cells (obtained from Alligator) transduced with human or cynomolgus macaque 5T4 and SKOV-3 human ovarian adenocarcinoma cells which express (human) 5T4. All labeling and washes were performed in U-bottom 96-well plates in saline buffer with 0.1% BSA and 2 mM EDTA. Cell were plated at approximately 100,000 cells per well and incubated with a range of 100 nM to 0.05 nM concentrations of test molecules in […], for 30 minutes on ice. Cells were washed three times then incubated for another 30 min on ice with fluorescently-labeled secondary polyclonal antibody, F(ab′)² goat anti-human IgG (Jackson ImmunoResearch Laboratories). The cells were then washed twice and the samples acquired in a BD LSRII or a Symphony A3 flow cytometer. The sample files were analyzed using FlowJo software; the mean fluorescence intensity (MFI-mean) or median fluorescence intensity (MFI-median) of the live population of cells in each well was calculated after gating on live cells (forward vs side scatter). Nonlinear regression analysis to determine EC₅₀ values was performed in GraphPad Prism 6® graphing and statistics software.

[5] = biological target: T4, human 5T4 on cells (human, UniProt Q13641 32-420); test: flow cytometry, murine CT26 cells expressing human 5T4, labelled anti-human IgG secondary, MFI (mean)
T4 construct: also called TPBG; hu5T4
T4 sequence: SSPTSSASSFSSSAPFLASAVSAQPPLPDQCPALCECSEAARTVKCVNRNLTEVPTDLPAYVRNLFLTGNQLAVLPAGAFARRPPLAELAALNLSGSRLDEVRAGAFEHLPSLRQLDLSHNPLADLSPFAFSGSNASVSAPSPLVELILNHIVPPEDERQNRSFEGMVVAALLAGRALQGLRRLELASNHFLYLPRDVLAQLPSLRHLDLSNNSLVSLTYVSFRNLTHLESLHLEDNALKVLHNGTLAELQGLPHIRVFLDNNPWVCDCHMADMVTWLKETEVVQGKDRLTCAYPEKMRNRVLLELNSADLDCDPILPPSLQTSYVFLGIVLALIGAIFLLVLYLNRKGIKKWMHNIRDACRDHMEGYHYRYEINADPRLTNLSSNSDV

T2 sequence (chain, as listed by the source limits assumed): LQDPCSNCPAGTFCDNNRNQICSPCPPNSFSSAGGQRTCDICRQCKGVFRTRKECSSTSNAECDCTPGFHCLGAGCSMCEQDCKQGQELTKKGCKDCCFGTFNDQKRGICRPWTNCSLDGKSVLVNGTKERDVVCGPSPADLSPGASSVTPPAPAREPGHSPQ
T1 sequence (Q07011 24-255 limits assumed): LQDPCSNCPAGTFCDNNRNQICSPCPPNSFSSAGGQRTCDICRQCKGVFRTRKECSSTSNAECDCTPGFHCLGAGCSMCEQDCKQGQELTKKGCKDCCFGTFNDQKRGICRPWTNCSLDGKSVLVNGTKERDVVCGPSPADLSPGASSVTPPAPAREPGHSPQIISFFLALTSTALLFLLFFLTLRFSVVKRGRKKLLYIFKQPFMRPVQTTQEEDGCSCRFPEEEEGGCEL

CD137 reporter assay with HCC1143 cells, EC50 against ALG.APV-004 [1]: 10 fold lower EC50
CD137 reporter assay with HCC1143 cells, EC50 against ALG.APV-006 and ALG.APV-004 [1]: ≤ 6 fold lower EC50
EC50 [2]: 0.41 nM
Maximum MFI [2]: 8720
Kd [3]: 73 nM
koff [3]: 0.027 s⁻¹
kon [3]: 370000 M⁻¹ s⁻¹
EC50 [4]: 8.5 nM
Maximum MFI [4]: 26000
EC50 [5]: 2.2 nM
Maximum MFI [5]: 1730
B1: ALG.APV-187 (bispecific antibody)
chain: EVQLLESGGGLVQPGGSLRLSCAASGFTFSHGSMYWVRQAPGKGLEWVSSISSGSGSTYYADSVKGRFTISHDNSKNTLYLQMNSLRAEDTAVYYCARSSYYGSYYSIDYWGQGTLVTVSSGGGGSGGGGSGGGGSGGGGSDIQMTQSPSSLSASVGDRVTITCRASQSISSYLNWYQQKPGKAPKLLIYAASSLQSGVPSRFSGSGSGTDFTLTISSLQPEDFATYYCQQYYDNLPTFGQGTKLEIKSSEPKSSDKTHTCPPCPAPEAAGAPSVFLFPPKPKDTLMISRTPEVTCVVVDVSHEDPEVKFNWYVDGVEVHNAKTKPREEQYNSTYRVVSVLTVLHQDWLNGKEYKCAVSNKALPAPIEKTISKAKGQPREPQVYTLPPSRDELTKNQVSLTCLVKGFYPSDIAVEWESNGQPENNYKTTPPVLDSDGSFFLYSKLTVDKSRWQQGNVFSCSVMHEALHNHYTQKSLSLSPGSGGGGSGGGGSGGGGSPSEVQLLESGGGLVQPGGSLRLSCAASGFTFSSYAMSWVRQAPGKCLEWVSAISGSGGSTYYADSVKGRFTISRDNSKNTLYLQMNSLRAEDTAVYYCARYYGGYYSAWMDYWGQGTLVTVSSGGGGSGGGGSGGGGSGGGGSDIQMTQSPSSLSASVGDRVTITCRASQSISSFLNWYQQKPGKAPKLLIYAASSLQSGVPSRFSGSGSGTDFTLTISSLQPEDSATYYCQQTYGYLHTFGCGTKLEIKR
notes: Optimized ADAPTIR scFv-Fc-scFv homodimer with stabilizing disulfide in the 1210 scFv

CD137 reporter assay with HCC1143 cells, EC50 against ALG.APV-004 [1]: 10 fold lower EC50
EC50 [2]: 0.56 nM
Maximum MFI [2]: 8970
Kd [3]: 59 nM
koff [3]: 0.033 s⁻¹
kon [3]: 550000 M⁻¹ s⁻¹
EC50 [4]: 7.2 nM
Maximum MFI [4]: 23800
EC50 [5]: 2.7 nM
Maximum MFI [5]: 1730
B2: ALG.APV-210 (bispecific antibody)
chain: EVQLLESGGGLVQPGGSLRLSCAASGFTFSHGSMYWVRQAPGKGLEWVSSISSGSGSTYYADSVKGRFTISHDNSKNTLYLQMNSLRAEDTAVYYCARSSYYGSYYSIDYWGQGTLVTVSSGGGGSGGGGSGGGGSGGGGSDIQMTQSPSSLSASVGDRVTITCRASQSISSYLNWYQQKPGKAPKLLIYAASSLQSGVPSRFSGSGSGTDFTLTISSLQPEDFATYYCQQYYDNLPTFGQGTKLEIKEPKSSDKTHTCPPCPAPEAAGAPSVFLFPPKPKDTLMISRTPEVTCVVVDVSHEDPEVKFNWYVDGVEVHNAKTKPREEQYNSTYRVVSVLTVLHQDWLNGKEYKCAVSNKALPAPIEKTISKAKGQPREPQVYTLPPSRDELTKNQVSLTCLVKGFYPSDIAVEWESNGQPENNYKTTPPVLDSDGSFFLYSKLTVDKSRWQQGNVFSCSVMHEALHNHYTQKSLSLSPGSGGGGSGGGGSGGGGSPSEVQLLESGGGLVQPGGSLRLSCAASGFTFSSYAMSWVRQAPGKCLEWVSAISGSGGSTYYADSVKGRFTISRDNSKNTLYLQMNSLRAEDTAVYYCARYYGGYYSAWMDYWGQGTLVTVSSGGGGSGGGGSGGGGSGGGGSDIQMTQSPSSLSASVGDRVTITCRASQSISSFLNWYQQKPGKAPKLLIYAASSLQSGVPSRFSGSGSGTDFTLTISSLQPEDSATYYCQQTYGYLHTFGCGTKLEIKR
notes: Optimized ADAPTIR scFv-Fc-scFv homodimer with stabilizing disulfide in the 1210 scFv; also called 5T4-CD137 bispecific antibody
